B1: GpH7-A5/GpH7-B3 variant S324_15Y/GpL16-k0 (antibody, human IgG1, kappa)
heavy 1: not shown
heavy 2: not shown
light: DIVMTQSPLSLPVTPGEPASISCQASESLVHSNRNTYLHWYLQKPGQSPQLLIYKVSNRFSGVPDRFSGSGSGTDFTLKISRVEAEDVGVYYCSQNTHVPPTFGQGTKVEIERTVAAPSVFIFPPSDEQLKSGTASVVCLLNNFYPREAKVQWKVDNALQSGNSQESVTEQDSKDSTYSLSSTLTLSKADYEKHKVYACEVTHQGLSSPVTKSFNRGEC
notes: copies: 1 + 1 + 2
B2: GpH7-A5/GpH7-B3 variant S337_06M/GpL16-k0 (antibody, human IgG1, kappa)
heavy 1: not shown
heavy 2: not shown
light: B1 light
notes: copies: 1 + 1 + 2
B3: GpH7-A5/GpH7-B3 variant S337_02A/GpL16-k0 (antibody, human IgG1, kappa)
heavy 1: not shown
heavy 2: not shown
light: B1 light
notes: copies: 1 + 1 + 2
B4: GpH7-A5/GpH7-B3 variant S337_04F/GpL16-k0 (antibody, human IgG1, kappa)
heavy 1: not shown
heavy 2: not shown
light: B1 light
notes: copies: 1 + 1 + 2
B5: GpH7-A5/GpH7-B3 variant S337_16H/GpL16-k0 (antibody, human IgG1, kappa)
heavy 1: not shown
heavy 2: not shown
light: B1 light
notes: copies: 1 + 1 + 2
B6: GpH7-A5/GpH7-B3 variant S324_19Q/GpL16-k0 (antibody, human IgG1, kappa)
heavy 1: not shown
heavy 2: not shown
light: B1 light
notes: copies: 1 + 1 + 2
B7: GpH7-A5/GpH7-B3 variant Y296_11K/GpL16-k0 (antibody, human IgG1, kappa)
heavy 1: not shown
heavy 2: not shown
light: B1 light
notes: copies: 1 + 1 + 2
B8: GpH7-A5/GpH7-B3 variant S337_09D/GpL16-k0 (antibody, human IgG1, kappa)
heavy 1: not shown
heavy 2: not shown
light: B1 light
notes: copies: 1 + 1 + 2
B9: GpH7-A5/GpH7-B3 variant T335_01G/GpL16-k0 (antibody, human IgG1, kappa)
heavy 1: not shown
heavy 2: not shown
light: B1 light
notes: copies: 1 + 1 + 2
B10: GpH7-A5/GpH7-B3 variant Y296_13S/GpL16-k0 (antibody, human IgG1, kappa)
heavy 1: not shown
heavy 2: not shown
light: B1 light
notes: copies: 1 + 1 + 2
B11: GpH7-A5/GpH7-B3 variant T335_11K/GpL16-k0 (antibody, human IgG1, kappa)
heavy 1: not shown
heavy 2: not shown
light: B1 light
notes: copies: 1 + 1 + 2
B12: GpH7-A5/GpH7-B3 variant S337_03V/GpL16-k0 (antibody, human IgG1, kappa)
heavy 1: not shown
heavy 2: not shown
light: B1 light
notes: copies: 1 + 1 + 2
B13: GpH7-A5/GpH7-B3 variant T335_10E/GpL16-k0 (antibody, human IgG1, kappa)
heavy 1: not shown
heavy 2: not shown
light: B1 light
notes: copies: 1 + 1 + 2
B14: GpH7-A5/GpH7-B3 variant Y296_08L/GpL16-k0 (antibody, human IgG1, kappa)
heavy 1: not shown
heavy 2: not shown
light: B1 light
notes: copies: 1 + 1 + 2
B15: GpH7-A5/GpH7-B3 variant S337_08L/GpL16-k0 (antibody, human IgG1, kappa)
heavy 1: not shown
heavy 2: not shown
light: B1 light
notes: copies: 1 + 1 + 2
B16: GpH7-A5/GpH7-B3 variant Y296_03V/GpL16-k0 (antibody, human IgG1, kappa)
heavy 1: not shown
heavy 2: not shown
light: B1 light
notes: copies: 1 + 1 + 2
B17: GpH7-A5/GpH7-B3 variant T335_16H/GpL16-k0 (antibody, human IgG1, kappa)
heavy 1: not shown
heavy 2: not shown
light: B1 light
notes: copies: 1 + 1 + 2
B18: GpH7-A5/GpH7-B3 variant Y296_19Q/GpL16-k0 (antibody, human IgG1, kappa)
heavy 1: not shown
heavy 2: not shown
light: B1 light
notes: copies: 1 + 1 + 2
B19: GpH7-A5/GpH7-B3 variant Y296_01G/GpL16-k0 (antibody, human IgG1, kappa)
heavy 1: not shown
heavy 2: not shown
light: B1 light
notes: copies: 1 + 1 + 2
B20: GpH7-A5/GpH7-B3 variant T335_13S/GpL16-k0 (antibody, human IgG1, kappa)
heavy 1: not shown
heavy 2: not shown
light: B1 light
notes: copies: 1 + 1 + 2
B21: GpH7-A5/GpH7-B3 variant Y296_10E/GpL16-k0 (antibody, human IgG1, kappa)
heavy 1: not shown
heavy 2: not shown
light: B1 light
notes: copies: 1 + 1 + 2
B22: GpH7-A5/GpH7-B3 variant T335_12R/GpL16-k0 (antibody, human IgG1, kappa)
heavy 1: not shown
heavy 2: not shown
light: B1 light
notes: copies: 1 + 1 + 2
B23: GpH7-A5/GpH7-B3 variant S324_18N/GpL16-k0 (antibody, human IgG1, kappa)
heavy 1: not shown
heavy 2: not shown
light: B1 light
notes: copies: 1 + 1 + 2
B24: GpH7-A5/GpH7-B3 variant S337_01G/GpL16-k0 (antibody, human IgG1, kappa)
heavy 1: not shown
heavy 2: not shown
light: B1 light
notes: copies: 1 + 1 + 2
B25: GpH7-A5/GpH7-B3 variant Y296_07I/GpL16-k0 (antibody, human IgG1, kappa)
heavy 1: not shown
heavy 2: not shown
light: B1 light
notes: copies: 1 + 1 + 2
B26: GpH7-A5/GpH7-B3 variant T335_04F/GpL16-k0 (antibody, human IgG1, kappa)
heavy 1: not shown
heavy 2: not shown
light: B1 light
notes: copies: 1 + 1 + 2
B27: GpH7-A5/GpH7-B3 variant T335_08L/GpL16-k0 (antibody, human IgG1, kappa)
heavy 1: not shown
heavy 2: not shown
light: B1 light
notes: copies: 1 + 1 + 2
B28: GpH7-A5/GpH7-B3 variant S337_20W/GpL16-k0 (antibody, human IgG1, kappa)
heavy 1: not shown
heavy 2: not shown
light: B1 light
notes: copies: 1 + 1 + 2
B29: GpH7-A5/GpH7-B3 variant T335_19Q/GpL16-k0 (antibody, human IgG1, kappa)
heavy 1: not shown
heavy 2: not shown
light: B1 light
notes: copies: 1 + 1 + 2
B30: GpH7-A5/GpH7-B3 variant Y296_16H/GpL16-k0 (antibody, human IgG1, kappa)
heavy 1: not shown
heavy 2: not shown
light: B1 light
notes: copies: 1 + 1 + 2

target: T1, FcγRIIIa (human, UniProt P08637 17-208); experiment: SPR (Biacore);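 further: antibody variants captured on an SPR sensor chip, with FcγRIIIa passed over as analyte in HBS-EP+ buffer at 25 °C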
T1 construct: extracellular domain; also called 3a; FcγRIIIa extracellular domain
T1 sequence (P08637 other isoform, or with tags, fused parts or gaps): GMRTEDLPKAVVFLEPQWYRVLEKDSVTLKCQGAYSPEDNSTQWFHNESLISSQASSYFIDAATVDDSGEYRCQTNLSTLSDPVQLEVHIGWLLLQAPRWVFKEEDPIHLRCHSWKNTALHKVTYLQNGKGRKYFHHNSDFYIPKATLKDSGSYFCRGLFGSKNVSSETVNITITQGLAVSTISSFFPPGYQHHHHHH

Row | He/Con 3a | Binder
1 | 110 % of GpH7-A5/GpH7-B3/GpL16-k0 | B1
2 | 89.7 % of GpH7-A5/GpH7-B3/GpL16-k0 | B2
3 | 92.4 % of GpH7-A5/GpH7-B3/GpL16-k0 | B3
4 | 94.4 % of GpH7-A5/GpH7-B3/GpL16-k0 | B4
5 | 100 % of GpH7-A5/GpH7-B3/GpL16-k0 | B5
6 | 96.2 % of GpH7-A5/GpH7-B3/GpL16-k0 | B6
7 | 53.3 % of GpH7-A5/GpH7-B3/GpL16-k0 | B7
8 | 102 % of GpH7-A5/GpH7-B3/GpL16-k0 | B8
9 | 95.1 % of GpH7-A5/GpH7-B3/GpL16-k0 | B9
10 | 58.1 % of GpH7-A5/GpH7-B3/GpL16-k0 | B10
11 | 91.7 % of GpH7-A5/GpH7-B3/GpL16-k0 | B11
12 | 87.1 % of GpH7-A5/GpH7-B3/GpL16-k0 | B12
13 | 102 % of GpH7-A5/GpH7-B3/GpL16-k0 | B13
14 | 72.4 % of GpH7-A5/GpH7-B3/GpL16-k0 | B14
15 | 90.2 % of GpH7-A5/GpH7-B3/GpL16-k0 | B15
16 | 69.1 % of GpH7-A5/GpH7-B3/GpL16-k0 | B16
17 | 99.3 % of GpH7-A5/GpH7-B3/GpL16-k0 | B17
18 | 71.4 % of GpH7-A5/GpH7-B3/GpL16-k0 | B18
19 | 51.3 % of GpH7-A5/GpH7-B3/GpL16-k0 | B19
20 | 100 % of GpH7-A5/GpH7-B3/GpL16-k0 | B20
21 | 76.8 % of GpH7-A5/GpH7-B3/GpL16-k0 | B21
22 | 93.1 % of GpH7-A5/GpH7-B3/GpL16-k0 | B22
23 | 103 % of GpH7-A5/GpH7-B3/GpL16-k0 | B23
24 | 95.2 % of GpH7-A5/GpH7-B3/GpL16-k0 | B24
25 | 75.8 % of GpH7-A5/GpH7-B3/GpL16-k0 | B25
26 | 91.7 % of GpH7-A5/GpH7-B3/GpL16-k0 | B26
27 | 97.8 % of GpH7-A5/GpH7-B3/GpL16-k0 | B27
28 | 93.8 % of GpH7-A5/GpH7-B3/GpL16-k0 | B28
29 | 97.7 % of GpH7-A5/GpH7-B3/GpL16-k0 | B29
30 | 69.1 % of GpH7-A5/GpH7-B3/GpL16-k0 | B30

Source: patent US20260167699A1 (Chugai, published 2026)
